The values below come from US20260008872A1 (NANO TAG BIOTECHNOLOGIES, published 2026).

Ends that are not written are not given here.

T1: epitope tag peptide SRLEEELRRRLTE (SEQ ID NO: 2), biotinylated (also: biotinylated (site and linker not given here))
T1 construct: Rationally designed peptide; also called ALFA-tag
T1 peptide: SRLEEELRRRLTE

B1: Variant 7 of humanized NbALFA (VHH)
VHH: EVQLVESGGGLVQPGGSLRLSCAASGVTISALNAMAMGWFRQAPGKGRELVAAVSERGNAMYRESVQGRFTISRDNAKRMVYLQMNSLRAEDTAVYYCHVLEDRVDSFHDYWGQGTQVTVSS
notes: CDR-grafted variant, produced in E. coli and purified by IMAC; The tag is not described
B2: wtNbALFA (original alpaca-derived NbALFA single-domain antibody) (VHH)
VHH: EVQLQESGGGLVQPGGSLRLSCTASGVTISALNAMAMGWYRQAPGERRVMVAAVSERGNAMYRESVQGRFTVTRDFTNKMVSLQMDNLKPEDTAVYYCHVLEDRVDSFHDYWGQGTQVTVSS
notes: VHH; Any purification tag on the construct used in the BLI and SpA assays is not described; also called wild type NbALFA
B3: Variant 11 of humanized NbALFA (VHH)
VHH: EVQLVESGGGLVQPGGSLRLSCAASGVTISALNAMAMGWYRQAPGKRREMVAAVSERGNAMYRESVKGRFTISRDNAKRMVYLQMNSLRAEDTAVYYCHVLEDRVDSFHDYWGQGTQVTVSS
B4: Variant 12 of humanized NbALFA (VHH)
VHH: EVQLVESGGGLVQPGGSLRLSCAASGVTISALNAMAMGWYRQAPGKRREMVAAVSERGNTMYRESVKGRFTISRDNAKRMVYLQMNSLRAEDTAVYYCHVLEDRVDSFHDYWGQGTQVTVSS
B5: Variant 14 of humanized NbALFA (VHH)
VHH: EVQLVESGGGLVQPGGSLRLSCAASGVTISALNAMAMGWYRQAPGKRREMVAAVSERGNAMYRESVKGRFTISRDNSKNTLYLQMNSLRAEDTAVYYCHVLEDRVDSFHDYWGQGTQVTVSS
B6: Variant 13 of humanized NbALFA (VHH)
VHH: EVQLVESGGGLVQPGGSLRLSCAASGVTISALNAMAMGWYRQAPGKRREMVAAVSERGNTYYRDSVKGRFTISRDNAKRMVYLQMNSLRAEDTAVYYCHVLEDRVDSFHDYWGQGTQVTVSS
B7: Variant 10 of humanized NbALFA (VHH)
VHH: EVQLVESGGGLVQPGGSLRLSCAASGVTISALNAMAMGWYRQAPGKRREMVAAVSERGNTMYRESVQGRFTISRDNAKRMVYLQMNSLRAEDTAVYYCHVLEDRVDSFHDYWGQGTQVTVSS
B8: Variant 15 of humanized NbALFA (VHH)
VHH: EVQLVESGGGLVQPGGSLRLSCAASGVTISALNAMAMGWYRQAPGKRREMVAAVSERGNTYYRDSVKGRFTISRDNSKNTLYLQMNSLRAEDTAVYYCHVLEDRVDSFHDYWGQGTQVTVSS
B9: Variant 9 of humanized NbALFA (VHH)
VHH: EVQLVESGGGLVQPGGSLRLSCAASGVTISALNAMAMGWYRQAPGKRREMVAAVSERGNAMYRESVQGRFTISRDNAKRMVYLQMNSLRAEDTAVYYCHVLEDRVDSFHDYWGQGTQVTVSS
notes: Further engineered humanized variant; Any tag on the tested construct is not described
B10: Variant 8 of humanized NbALFA (VHH)
VHH: EVQLVESGGGLVQPGGSLRLSCAASGVTISALNAMAMGWFRQAPGKRREMVAAVSERGNAMYRESVQGRFTISRDNAKRMVYLQMNSLRAEDTAVYYCHVLEDRVDSFHDYWGQGTQVTVSS
notes: as for B9
B11: Variant 3 of humanized NbALFA (VHH)
VHH: EVQLLESGGGLVQPGGSLRLSCAASGVTISALNAMAMGWFRQAPGKGLEFVAAVSERGNAMYRESVQGRFTISRDNSKNTLYLQMNSLRAEDTAVYYCAALEDRVDSFHDYWGQGTLVTVSS
notes: as for B1
B12: Variant 4 of humanized NbALFA (VHH)
VHH: EVQLLESGGGLVQPGGSLRLSCAASGVTISALNAMAMGWFRQAPGKGLEFVAAVSERGNAYYRDSVKGRFTISRDNSKNTLYLQMNSLRAEDTAVYYCAALEDRVDSFHDYWGQGTLVTVSS
notes: as for B1
B13: Variant 6 of humanized NbALFA (VHH)
VHH: EVQLQASGGGFVQPGGSLRLSCAASGVTISALNAMAMGWFRQAPGKEREFVSAVSERGNAMYRESVQGRFTISRDNSKNTVYLQMNSLRAEDTATYYCAALEDRVDSFHDYWGQGTQVTVSS
notes: as for B1
B14: Variant 5 of humanized NbALFA (VHH)
VHH: EVQLQASGGGFVQPGGSLRLSCAASGVTISALNAMAMGWFRQAPGKEREFVSAISERGNAYYRDSVKGRFTISRDNSKNTVYLQMNSLRAEDTATYYCAALEDRVDSFHDYWGQGTQVTVSS
notes: as for B1

In one experiment the target is T1, epitope tag peptide SRLEEELRRRLTE (SEQ …). As to the kind of experiment: BLI (Octet), biotinylated peptide on SAX2.0 biosensors, 1:1 global fit. As to the method: (§1) To determine the affinity of humanized NbALFA variants to the epitope tag of SEQ ID NO: 2, an Octet RED96 or an Octet HTX from ForteBio was utilized. The measurement principle is based on biolayer interferometry (BLI). SAX2.0 biosensors were soaked for 10 min in kinetic buffer (KB), supplied by the manufacturer of the instrument. At first, a 60 or 120 sec baseline in KB was measured, followed by a loading step of 240 sec with 83 ng/ml of biotinylated peptide of SEQ ID NO: 2. After loading, free streptavidin entities on the biosensor were quenched during a 120 sec incubation step in a 100 μg/ml biocytin solution. Subsequently, a 60 to 600 sec baseline in KB was measured followed by association of the VHH. The VHH was applied with a maximal concentration of 10 nM and was 1:1 serial diluted in KB. As a reference, only KB was measured. Association was performed for 900 sec, followed by a dissociation time of 1500 sec in KB. The signal of the reference well was subtracted from the signal of all other biosensors and the signals of these processed data were aligned to the average of the second baseline. For inter-step correction, the data were aligned to the dissociation step and Savitzky-Golay filtering was applied to all curves. Association and dissociations were globally fitted using a 1:1 Langmuir binding model.
The Kd is the free concentration of one partner at which half of the binding sites on the other are occupied at equilibrium, for simple one-to-one binding. A low value points to tighter binding. One may read the koff as a measure of how fast the partners let go of each other. Higher therefore signals fast dissociation. Usually kon stands for a measure of how fast the partners come together. A low value points to slow association. In turn, B1 had a Kd of 1.86 nM, a koff of 0.000276 s⁻¹ and a kon of 149000 M⁻¹ s⁻¹.

B2 displayed a Kd of 0.16 nM, a koff of 6.37e-05 s⁻¹ and an on-rate constant (kon) of 399000 M⁻¹ s⁻¹.

The target is the same in another experiment. Described as above. This is another data set of the same source. How it is done:
as §1
In turn, B3 registered a Kd of 0.0595 nM, a koff of 3.7e-05 s⁻¹ and a kon of 622000 M⁻¹ s⁻¹.

Regarding B4, the Kd came to 0.248 nM, the koff is 0.000151 s⁻¹ and the kon came out at 609000 M⁻¹ s⁻¹.

On to B5, for which the affinity, expressed as Kd, was 0.218 nM; the koff stood at 0.00013 s⁻¹; the kon worked out at 596000 M⁻¹ s⁻¹.

Regarding B6, the affinity, expressed as Kd, was 0.217 nM; the koff is 0.000167 s⁻¹; the kon stood at 767000 M⁻¹ s⁻¹.

B7 showed a Kd of 0.306 nM, a koff of 0.000147 s⁻¹ and a kon of 480000 M⁻¹ s⁻¹.

B8 had a koff of 0.000302 s⁻¹ and a kon of 1.59e+06 M⁻¹ s⁻¹.

Take B9: the Kd was 0.182 nM, the koff was determined as 3.69e-05 s⁻¹ and the kon was determined as 203000 M⁻¹ s⁻¹.

For the molecule B10, the Kd was 0.263 nM, the koff was found to be 0.000263 s⁻¹ and the kon was found to be 1e+06 M⁻¹ s⁻¹.

The molecule B2 yielded a Kd of 0.16 nM, a dissociation rate constant (koff) of 6.37e-05 s⁻¹ and an association rate constant (kon) of 399000 M⁻¹ s⁻¹.

For the next experiment the target is unchanged. The experiment is described as follows: biolayer interferometry (Octet); biotinylated peptide of SEQ ID NO: 2 loaded on SAX2.0 biosensors; VHH in solution, 1:1 serial dilution (Method 1).
Text: FIG. 1: Affinity of humanized NbALFA variants generated by CDR grafting. A, affinity measurements of the original alpaca-derived NbALFA (wtNbALFA) for the peptide of SEQ ID NO: 2. B, affinity measurements of variant 3 for the peptide of SEQ ID NO: 2. C, affinity measurements of variant 4 for the peptide of SEQ ID NO: 2. D, affinity measurements of variant 5 for the peptide of SEQ ID NO: 2. E, affinity measurements of variant 6 for the peptide of SEQ ID NO: 2. F, affinity measurements of variant 7 for the peptide of SEQ ID NO: 2. Affinity was determined using biolayer interferometry as described in Method 1 of the Examples.
as §1
B11: the binding result is “no binding”.

Consider B12, for which the binding result is on record as “no binding”.

On to B13, for which the binding result is “no binding”.

Take B14: the binding result was “no binding”.
